According to PMC12905498 (Biochemical Journal, 2026):

B3: Plasmodium falciparum HAP2 domain 3 (PfHAP2 D3 HisAvi), deglycosylated (domain or fragment)
chain: VSYGTITHITIPKDCSSNQTNSKECILVVHTWNNNKTIGANFSCHVLCVDKSTQQVATHISPISKINAHIDANKNYAFYFIIKFLINKKITSNCTAILKDADGRECSKLSFNLTSKETIN

Assays:
Conditions in all cases: both partners purified
[1] = biological target: B3; assay: BLI; affinity: nanobody-Fcs or antibodies (5 µg/ml) loaded on anti-human IgG Fc Capture (AHC) tips, two-fold dilution series of antigen; PBS pH 7.4, 0.1% BSA, 0.05% TWEEN-20, 25°C; 1:1 Langmuir model; mean of two experiments
[2] = biological target: T1, WNbFc 333 (nanobody WNb 333 fused to hinge and Fc of human IgG1) (alpaca); assay: ELISA
T1 construct: also called WNb 333 nanobody-Fc; source: Expi293 cells, transient transfection, purified (HiTrap PrismA)

[3] = biological target: T2, WNbFc 335 (nanobody WNb 335 fused to hinge and Fc of human IgG1) (alpaca); assay: ELISA
T2 construct: also called WNb 335 nanobody-Fc; source: Expi293 cells, transient transfection, purified (HiTrap PrismA)

[4] = biological target: T3, WNbFc 334 (nanobody WNb 334 fused to hinge and Fc of human IgG1) (alpaca); assay: ELISA
T3 construct: also called WNb 334 nanobody-Fc; source: Expi293 cells, transient transfection, purified (HiTrap PrismA)

[5] = biological target: T1, WNbFc 333 (nanobody WNb 333 fused to …); assay: BLI; affinity: nanobody-Fcs or antibodies (5 µg/ml) loaded on anti-human IgG Fc Capture (AHC) tips, two-fold dilution series of antigen; PBS pH 7.4, 0.1% BSA, 0.05% TWEEN-20, 25°C; 1:1 Langmuir model; mean of two experiments
[6] = biological target: T2, WNbFc 335 (nanobody WNb 335 fused to …); assay: as above
[7] = biological target: T3, WNbFc 334 (nanobody WNb 334 fused to …); assay: as above
[8] = biological target: T1, WNbFc 333 (nanobody WNb 333 fused to …); assay: BLI

B1: anti-PbHAP2 D3 mAb 6.14 (variable regions in AbVec-hIgG1 and AbVec-IgKappa) (antibody, V domains shown)
VH: EVQLVESGGGLVKPGGSLKLSCAASEFTFSDYGMHWVRQAPEKGLEWVASISSGSNSIYYSDTVKGRFTISRDNAKSILFLQMTSLRSEDTAMYYCSREAYFAMDYWGQGTSVTVSS
VL: DIQMTQSPSSLSAILGGKVTITCKASQDIHKYIAWYQHKPGKGPRLLIYYTSTLQPGIPSRFSGSGSGRDYSFSISNLEPEDVATYFCLQYDNLYTFGGGTKVEIE
notes: also called anti-PbHAP2 mAb 6.14; source: Expi293 cells, transient transfection (1:1 light and heavy chain plasmids), purified as the nanobody-Fcs (HiTrap PrismA)
Question: Does B1 bind [1]?
Answer: Result: no binding

B2: Pfs48/45 Domain 3 (domain or fragment)
chain: KVIHGCNFSSNVSSKHTFTDSLDISLVDDSAHISCNVHLSEPKYNHLVGLNCPGDIIPDCFFQVYQPESEELEPSNIVYLDSQINIGDIEYYEDAEGDDKIKLFGIVGSIPKTTSFTCICKKDKKSAYMTVTIDSA
notes: source: Sf21 cells (baculovirus), purified as PfHAP2 D3 (Ni-NTA, SEC)
Question: Does B2 bind [2]?
Answer: Result: no binding (tested: 125 nM)

Question: Does B2 bind [3]?
Answer: Result: no binding (tested: 125 nM)

Question: Does B2 bind [4]?
Answer: Result: no binding (tested: 125 nM)

Question: B3 was tested. Which Kd [5] did it give?
Answer: The Kd was 15.8 nM.

Question: What about the Kd [6] of the same binder?
Answer: The Kd was 50.8 nM.

Question: What about the Kd [7] of the same binder?
Answer: The Kd was 26.1 nM.

B4: Plasmodium vivax HAP2 domain 3 (domain or fragment)
chain: VSTATITHITTPKNCSSNQSESKDCVLIVHTWNNSANVGSNFSCHVICTDKETGKIATHIGPISPVNAFIDANKNYAFYFIIKFLINKEIKTMCKAVLRDSNGKECSKEDFLLTSKE
notes: as for B2
Question: Does B4 bind [8]?
Answer: Result: binds

B5: Plasmodium berghei HAP2 domain 3 (domain or fragment)
chain: VSIATITHVTIPNDCASNNSNSNECVLIIHVWNNSKFVGSNFSCSIACTNKETDQLASHINPIAPVRAFIGPNKNYAFYFIIKFLINKEITTLCKAIVKDSNGKECSIEEFELQSKESVH
notes: as for B2
Question: Which results are given for B5?
Answer: binding result [7]: binds; binding result [8]: binds
